Measured values from the supplement of paper PMC12764529.
± gives the half width of the 95% confidence interval.

Experiments:
[1] = folding stability dG unfold (combined trypsin and chymotrypsin); higher = more stable
Summary of the method: (§1)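 Designed mini-proteins with no cysteine and under 80 residues were kept only if AlphaFold2 dimer inter-PAE was above 15. In a PA-tagged cDNA display construct, they were digested with trypsin and chymotrypsin and then sequenced. K50 was inferred by Bayesian fitting of counts, and unfolding free energy was derived per protease or combined against a sequence-predicted unfolded-state K50 and a shared folded-state K50.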

[2] = folding stability dG unfold from chymotrypsin proteolysis; higher = more stable
Summary of the method: as §1

[3] = folding stability dG unfold from trypsin proteolysis; higher = more stable
Summary of the method: as §1

| Sequence | folding stability dG unfold [1] [kJ/mol] | folding stability dG unfold [2] [kJ/mol] | folding stability dG unfold [3] [kJ/mol] |
| --- | --- | --- | --- |
| SAGGYVTSPMSPEIEAKAKEAGKTIDEAKELVIPVNDGGKFRTVKVTFYPETGTVAFYYEDTGEWSNLLSAG [r5_545_JUSTAS] | 4 ± 0.92 | 4.41 ± 0.795 | 2.09 ± 0.502 |
| SAGHPWMFRAKVEYDDGKPVGEREINIPGMPIDDIASDLFNEPGLRKVKIEFYWMDGEPQEIEIPVKPSAGG [r19_269_TrROS] | 2.88 ± 0.879 | 1.91 ± 1.17 | 3.35 ± 0.406 |
| SAGIKEIAKKLGFPIHSVKPTEPDPENGKLKWTVIFRNEKNNYYVIEIDLDDPEKIEIERFPPGEEIPSAGG [r19_72_TrROS] | 5.81 ± 0.879 | 6.72 ± 0.502 | 5.05 ± 0.544 |
| SAGIKIKDISRDPNGYVEVTIVYPPGKSIKEIIELIRKLFGFKIEKVEIYPSPNGVYITYRFRIPEGAISAG [r5_774_TrROS] | 17.3 ± 0.502 | 18.7 ± 0.243 | 13.2 ± 0.46 |
| SAGIKPGEKIEKVEIVKVEVKKNKDGSKTVTVTIKLKDGKTITIKPGETIEIKIENKKEGEKITLKVKSAGG [r19_199_TrROS_Hall] | 7.29 ± 0.669 | 7.99 ± 0.544 | 6.07 ± 0.544 |
| SAGIPYRVLELEIPGVGVRVEVRLAPDGRIVEVRVTVVPVPPVPPALPLRPELLVPDEDGRWYSPEELLSAG [r5_685_TrMRF] | 10.2 ± 0.46 | 9.45 ± 0.117 | 11.2 ± 0.247 |
| SAGITIRLPGAEIEVQRYPHPGNGMPMYRVTVELENPEGKKPKVDVIFPPNQPPGQVENVARYIAKELKSAG [r5_704_TrROS] | 1.98 ± 0.669 | -1.26 ± 1.17 | 3.59 ± 0.544 |
| SAGIYIPMDMTIDELVDILQKFGIRSVTTERMPEPGMYKATLKFPDLTIEIWYHPNWMHIEIVPPGEPISAG [r5_899_TrROS] | 16.1 ± 0.962 | 17.5 ± 0.293 | 11.6 ± 0.502 |
| SAGKETIKIKLFDKNGKLIAEIEIEKLPDGTYKIKIKNKKTGKELEIEVKIEDGKIYIKLPNGAILEIESAG [r5_809_TrROS_Hall] | 21.1 ± 0.837 | 21.5 ± 0.837 | 14.7 ± 0.795 |
| SAGKEVIVITVEELEKLLKALKPGEKVKIVVINKDGKKVTFTAEVKDGKVEIKEAEKDIKPGDKIFIEKSAG [r5_85_TrROS_Hall] | 12.9 ± 1.92 | 14.6 ± 1.17 | 7.75 ± 0.711 |
| SAGKFKITNISPMEERKPEDDKWEEQPYIMIRMRWKDPQKALDEIKEEFGYPVNIQRDPDDGWATIMIPSAG [r5_907_TrROS] | 1.04 ± 0.46 | 0.966 ± 0.753 | 0.572 ± 0.837 |
| SAGKIEIEVNEDGYKVRIKVEIEGKTYEFEIKVEGLSVEEIVKKALEELKKLFPNKKIKVEVEILPKKESAG [r5_180_TrROS_Hall] | 20.5 ± 2.26 | 20.1 ± 1.26 | 17.3 ± 0.879 |
| SAGKIEILDEKPYKDSITVVAKLPGTDEIIVLTYNPKTKTVEIKIFPPKGVKTIPVKAKDIEKALKEIASAG [r5_769_TrMRF] | 7.12 ± 1.05 | 9.13 ± 0.669 | 3.05 ± 0.301 |
| SAGKIEKIVITKKKDGYVIKVYYKDNKKVKTYKAGKTLEEIKKKLEEEGFEIVKVEVKKVKPGEKVEISAGG [r19_386_TrROS_Hall] | 12.8 ± 1.8 | 13.5 ± 0.879 | 9.69 ± 0.753 |
| SAGKIKIEVEYLDPNGDWRRYEHTIPFKPNQSFEEAINELLPPGLREIKITEVDPEEGTIKIDIWIRPDSAG [r5_227_TrROS] | 10.1 ± 0.795 | 10.5 ± 0.255 | 8.89 ± 0.544 |
| SAGKIPPIKDIEPNPDNGMLMITIPFPDDGKLKVRIENKGQDQEYEFPPGMSFMIPPSNAPIKIEIEWDSAG [r14_96_TrROS] | 3.66 ± 0.41 | 3.43 ± 0.289 | 3.59 ± 0.0795 |
| SAGKITLDGFTLDGEQTLTLTVEVPAPGGGTRTETFTATVTFDPETGTAHVPVTLPNGEELPFTFKVDASAG [r5_743_TrMRF] | 5.92 ± 0.314 | 6.36 ± 0.377 | 4.92 ± 0.1 |
| SAGKKIELTFRNPDGWMIRITIEKKPNGGFQITEITWEPYPNGRMSAKIYVPNGKTIEVNSWDDILDALSAG [r5_618_TrROS] | 8.89 ± 0.502 | 10.8 ± 0.314 | 4.55 ± 0.159 |
| SAGKKITAEELAKKIAEELGLPEDAKVEVEEVDGTIYIRVEGYVIKITVKDGEITIEIKPAPASPEALKSAG [r5_190_TrROS_Hall] | 10.2 ± 1.17 | 12.2 ± 0.46 | 6.41 ± 0.184 |
| SAGKKKKIKIKVKIIVNGKLKEIEIEVDENKTLEEILAEIKKKLPKNAIIIITNENGEKKIIILPKEELSAG [r5_77_TrROS_Hall] | 7.9 ± 1.88 | 6.6 ± 0.418 | 10.4 ± 1 |
| SAGKKKKIKKIEIEIEKNKDGKEIKVKVKVDGKEYEFTFPKNMSLEELLKKLKEELEKEGLKIEEVEIKSAG [r5_305_TrROS_Hall] | 11.4 ± 0.753 | 11.7 ± 0.544 | 10.4 ± 0.544 |

| Sequence | folding stability dG unfold [1] [kJ/mol] | folding stability dG unfold [2] [kJ/mol] | folding stability dG unfold [3] [kJ/mol] |
| --- | --- | --- | --- |
| SAGKKKKYKIKIKIEISEDGTIKITIEIFDKNGKLVKKIEITIKLPKVKLSEEELKEAAKKGDLEKALKSAG [r5_944_TrROS_Hall] | 12.4 ± 2.93 | 15.1 ± 1.17 | 9.31 ± 1.17 |
| SAGKKKVIIVKVKPEDLEKLLEAIKKLPKEKVKRIEIEVNGKLYLIEVTDKEIKIYDIETGEEKTIKLSAGG [r19_154_TrROS_Hall] | 9.98 ± 2.34 | 10.9 ± 0.255 | 8.8 ± 0.92 |
| SAGKKKVLLAVDPENNALVLVEYETVGDVTFVRSLVFHGNTTTETLGLVRVIEPGKTEKLLISVPIPPSAGG [r19_292_TrMRF] | 9.47 ± 0.544 | 9.62 ± 0.209 | 8.66 ± 0.197 |
| SAGKKLFIKVKIRVKKKVKLKDGKTVEKEKELTLLIEAESEEEALEAAKKLAEELGLEIEKVEIFKAPSAGG [r19_176_TrROS_Hall] | 12.9 ± 1.13 | 15.7 ± 0.669 | 10.1 ± 0.628 |
| SAGKKLIIRVEVYRREKNENGEIKKVTETLEVPPGATIEELVKALAPPGYTIRIEIIENGKIIETIEIKSAG [r5_278_TrROS_Hall] | 13.5 ± 1.3 | 15 ± 0.36 | 8.95 ± 0.669 |
| SAGKKQEVTIMIPIRGPAQAREQVEEFANDFPIKPTRVHPNPNKNHYWVMVTMKVPGAKIKIMIWIPPSAGG [r19_262_TrROS] | 15.4 ± 0.544 | 17.5 ± 0.238 | 12.3 ± 0.46 |
| SAGKKSTLTIDLPGSTVTLTYDPATGKVRITVNLGVAVAGIDPETGKPGIVTGSVTLEADIDVPPGAPISAG [r5_195_TrMRF] | 11.1 ± 0.628 | 11.2 ± 0.238 | 10.9 ± 0.669 |
| SAGKKTIIIKIPPNMTVEELKKALKNLKPNEKVTITVNGKKYTITVKDGKIKITFPENVKNMILIIEVKSAG [r5_373_TrROS_Hall] | 10.1 ± 1.51 | 10.6 ± 0.238 | 8.72 ± 0.544 |
| SAGKKTVTIVIRLKEPGERLSAEELAALLRELGLPPGAKVTVERRPDGYLVVTVEVDGKTVTIVIELEDSAG [r5_144_TrROS_Hall] | 9.8 ± 0.234 | 10.53 ± 0.0795 | 8.51 ± 0.167 |
| SAGKKVKKITLTIKNKETGEYYKAEVIENENGEKYIKIINKKTGKIYIFKIKDGKIEPVKEISLKDIKPSAG [r5_619_TrROS_Hall] | 11.8 ± 0.837 | 13 ± 0.222 | 7.75 ± 0.28 |
| SAGKKVRIWIVFDGDPEQAKYLAEEIAKELRQKDGHKNVDIEVIPPGQDMHQMMEWAEENNVDIVIMVSAGG [r19_89_TrROS] | 15 ± 0.544 | 16.1 ± 0.795 | 11.2 ± 0.628 |
| SAGKKVTIKAIVRVKLANGEWFEAKVKEVTFDEETGEVTITVEVDGKTYTITVPLEDIELVDDAEEALKSAG [r5_15_TrROS_Hall] | 13.6 ± 0.264 | 15.6 ± 0.268 | 9.15 ± 0.142 |
| SAGKMLVVRIEVEVEVEVTVEKDGKKETFKEKKKLTLTLVFESEEEAEAAKKELEKLFPDLKIEVVPLPSAG [r5_453_TrROS_Hall] | 19 ± 0.837 | 19.1 ± 0.669 | 18.5 ± 1.97 |
| SAGKMYLIVIKVDGKEYVIVIPEEEMSEEEIRKLISEELGISEEEVEIVEIVPVEPGESVEEALKKALESAG [r5_900_TrROS_Hall] | 16.5 ± 0.628 | 17.7 ± 0.31 | 11.6 ± 0.586 |
| SAGKNEVLKVDIEYDPETGIIRLKTTYPNGLKEEKLIFKIPGTGKWYTAWNSEYEEGKEYQDFGILPESAGG [r19_394_TrMRF] | 8.45 ± 0.502 | 9.83 ± 0.209 | 8.27 ± 0.628 |
| SAGKPIDLGEVEVEISPVSYDPETGKLTYQARLVTKDGKPIYTASVTYDPKTGKFSISVTPIGYDPSAFSAG [r5_200_TrMRF] | 9.2 ± 0.586 | 8.34 ± 0.502 | 9.45 ± 0.238 |
| SAGKPKIIEEKTITVPPGATLTIEFPPEVKRIEIINLDTGKTETIEIKPGEKLTFTFPPGSTVRVRVLSAGG [r19_118_TrROS_Hall] | 15.3 ± 0.377 | 17 ± 0.192 | 9.95 ± 0.121 |
| SAGKPKVIFIEGMTKEQLRAAIDEAKKKLKPGDIIVVRSKEAADALKELLPDLTVYLVDEETKEVKKLPSAG [r5_391_TrROS_Hall] | 8.72 ± 0.586 | 8.8 ± 0.28 | 8.01 ± 0.586 |
| SAGKPLTPDEAKELAEELVDAFAEEFARRHGMPPDDMKVIEVEETPDGYIQVTFRMPNMPMKFEIPVKDSAG [r5_565_TrROS] | 1.53 ± 0.418 | 1.16 ± 0.46 | 1.82 ± 0.238 |
| SAGKPPPVKIEVNYRRTPDNSYRAEVQIRLPDGKPLFEVTYPFDNPDDPEARERFVRKARNLAKELANSAGG [r19_13_TrROS] | 8.94 ± 2.09 | 7.53 ± 0.795 | 7.95 ± 0.586 |
